Test results published in the supplement of paper PMC10126150.
± gives the standard deviation of the averaged measurements.

Tested on: ATP
Test: switch fluorescence ratio, 500 uM ATP over buffer (Cy3 cluster intensity, sum of 5 cycles each) (fold (ratio)); higher = stronger signal-on switching upon ATP binding; sequences stand for … in TCGTCGGCAGCGTCAGATGTGTATAAGAGACAGTTTTTTTTTTTTTTTTTTTTTTTTT…TC
Details: aptamer strand: ATP DNA aptamer (quencher-CACCTGGGGGAGTATTGCGGAGGAAGG + anchor), 100 nM annealed; ATP concentration: 500 uM
In short: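 Values give the fluorescence ratio for each switch-domain sequence, averaged from per-cluster ratios of summed target-cycle to summed buffer-cycle Cy3 intensity. The Cy3-labelled switching-strand clusters sat on a modified Illumina MiSeq flow-cell, were annealed to 100 nM quencher-labelled ATP aptamer, and were imaged in selection buffer, then after 15 min with 500 uM ATP at 22 °C. Five cycles ran with NaOH stripping and re-annealing between them, and clusters outside 100-1000 RFU were excluded.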
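Note: ATP exposure 15 min at 22 °C before imaging.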

Row | Sequence | switch fluorescence ratio
1 | AAAAAAAACC | 1.4 ± 0.33
2 | AAAAAAAATG | 0.9991 ± 0.0042
3 | AAAAAAATGG | 1.01 ± 0.041
4 | AAAAAAATTG | 1 ± 0.017
5 | AAAAAACGTA | 1.08 ± 0.1
6 | AAAAAAGAAG | 1.01 ± 0.021
7 | AAAAACGTAA | 1.1 ± 0.061
8 | AAAAAGATTG | 1.06 ± 0.08
9 | AAAAAGGGAA | 0.986 ± 0.02
10 | AAAAAGGGCC | 1.009 ± 0.0089
11 | AAAAATAGTG | 1.036 ± 0.0098
12 | AAAAATGGGA | 0.962 ± 0.044
13 | AAAAATGTCC | 1.07 ± 0.03
14 | AAAAATTATT | 1.006 ± 0.0065
15 | AAAAATTCTG | 1.02 ± 0.014
16 | AAAAATTTAG | 0.994 ± 0.034
17 | AAAACAAGGG | 1.01 ± 0.012
18 | AAAACACTGG | 1.06 ± 0.053
19 | AAAACCGAAA | 1.11 ± 0.1
20 | AAAACCGGGA | 1.32 ± 0.52
21 | AAAACCGTGT | 1.05 ± 0.04
22 | AAAACGGCTC | 1.01 ± 0.0097
23 | AAAACTTTTA | 1.02 ± 0.04
24 | AAAAGAAAAG | 1.01 ± 0.051
25 | AAAAGAACGC | 1.05 ± 0.097

Row | Sequence | switch fluorescence ratio
26 | AAAAGAAGCA | 0.948 ± 0.026
27 | AAAAGAATAT | 1 ± 0.019
28 | AAAAGAATCG | 0.996 ± 0.049
29 | AAAAGAGAAG | 1 ± 0.011
30 | AAAAGAGGCA | 1.02 ± 0.025
31 | AAAAGAGGGT | 1.03 ± 0.048
32 | AAAAGAGGTT | 0.9996 ± 0.0072
33 | AAAAGAGTAT | 1 ± 0.016
34 | AAAAGATTTT | 1.06 ± 0.14
35 | AAAAGCGCGG | 1.13 ± 0.074
36 | AAAAGCTCCG | 1.05 ± 0.033
37 | AAAAGCTGGG | 1.02 ± 0.051
38 | AAAAGGGA | 0.982 ± 0.046
39 | AAAAGGGACG | 1.05 ± 0.12
40 | AAAAGGGCGG | 1.01 ± 0.023
41 | AAAAGGGCGT | 0.9944 ± 0.0066
42 | AAAAGGTTGG | 0.997 ± 0.015
43 | AAAAGGTTTG | 1.022 ± 0.0081
44 | AAAAGTAAAA | 1.03 ± 0.061
45 | AAAAGTCAAT | 1.004 ± 0.0089
46 | AAAAGTCAGT | 0.988 ± 0.053
47 | AAAAGTCGCT | 1.03 ± 0.025
48 | AAAAGTCGGC | 1.04 ± 0.057
49 | AAAAGTTCGT | 0.983 ± 0.024
50 | AAAAGTTGTA | 1.01 ± 0.027

Row | Sequence | switch fluorescence ratio
51 | AAAATAAAG | 0.947 ± 0.077
52 | AAAATAAAGG | 0.976 ± 0.023
53 | AAAATATGCT | 1 ± 0.049
54 | AAAATCAAAT | 1.02 ± 0.019
55 | AAAATCAGCG | 1 ± 0.051
56 | AAAATCCTTG | 1.01 ± 0.04
57 | AAAATCGGTG | 1.01 ± 0.068
58 | AAAATCTAGT | 1.014 ± 0.0081
59 | AAAATCTGGT | 1.03 ± 0.015
60 | AAAATGAGCC | 1.036 ± 0.00036
61 | AAAATGATCG | 1.006 ± 0.0074
62 | AAAATGGATT | 0.995 ± 0.055
63 | AAAATGGTCA | 1.0102 ± 0.00092
64 | AAAATGTAGA | 0.9919 ± 0.0016
65 | AAAATTAAGA | 0.982 ± 0.025
66 | AAAATTAAGC | 1.01 ± 0.051
67 | AAAATTCAAG | 0.983 ± 0.016
68 | AAAATTCAGG | 1.02 ± 0.011
69 | AAAATTCTGC | 1.06 ± 0.022
70 | AAAATTGGGC | 1.08 ± 0.02
71 | AAAATTGGGG | 1.02 ± 0.039
72 | AAAATTTATG | 1.01 ± 0.038
73 | AAACAGATAA | 1.04 ± 0.084
74 | AAACAGCCGG | 1.03 ± 0.0074
75 | AAACAGCTCA | 0.994 ± 0.027

Row | Sequence | switch fluorescence ratio
76 | AAACCAGCCC | 1.21 ± 0.21
77 | AAACCTGGCT | 1.41 ± 0.034
78 | AAACCTGGGT | 1.03 ± 0.025
79 | AAACGAAATT | 1.03 ± 0.068
80 | AAACGAAGGA | 1.09 ± 0.069
81 | AAACGCGTTG | 0.9955 ± 0.0011
82 | AAACGGCGGC | 1.05 ± 0.041
83 | AAACGGGGAC | 1.07 ± 0.15
84 | AAACGGGTGC | 1.27 ± 0.29
85 | AAACGGTATT | 1.09 ± 0.083
86 | AAACGGTTTC | 0.993 ± 0.036
87 | AAACGTTAGC | 1.03 ± 0.052
88 | AAACTAAGAA | 1 ± 0.016
89 | AAACTCGGAC | 1.143 ± 0.0053
90 | AAACTCTGCG | 1.05 ± 0.026
91 | AAACTGAATA | 1.03 ± 0.016
92 | AAACTGATGC | 1.03 ± 0.052
93 | AAACTGCTCC | 1.517 ± 0.012
94 | AAACTGTAAA | 1.08 ± 0.045
95 | AAACTGTATT | 1.08 ± 0.019
96 | AAACTTAATA | 1.14 ± 0.16
97 | AAACTTGCCC | 1.09 ± 0.012
98 | AAAGAAAAGG | 0.989 ± 0.0065
99 | AAAGAAGGTA | 1 ± 0.026
100 | AAAGAATAAA | 1.022 ± 0.0089

Row | Sequence | switch fluorescence ratio
101 | AAAGACCGTG | 1.02 ± 0.033
102 | AAAGACGCGC | 0.998 ± 0.038
103 | AAAGAGGGTA | 0.963 ± 0.055
104 | AAAGAGGGTT | 1.02 ± 0.019
105 | AAAGATGAAT | 1.04 ± 0.011
106 | AAAGATGGGA | 1.003 ± 0.0081
107 | AAAGATGTCA | 1.005 ± 0.0029
108 | AAAGATTATT | 1 ± 0.021
109 | AAAGATTTCG | 0.971 ± 0.027
110 | AAAGCCACGC | 1.11 ± 0.032
111 | AAAGCGCGCT | 1 ± 0.07
112 | AAAGCGGGGC | 1.02 ± 0.015
113 | AAAGCTCTGT | 0.992 ± 0.012
114 | AAAGCTGGAG | 1.03 ± 0.021
115 | AAAGGAAGAA | 1.013 ± 0.0073
116 | AAAGGACGTG | 0.9356 ± 0.0076
117 | AAAGGAGGAG | 0.991 ± 0.038
118 | AAAGGCACCC | 1.05 ± 0.019
119 | AAAGGCCATG | 1.02 ± 0.0045
120 | AAAGGCCCGA | 1.0084 ± 0.00039
121 | AAAGGCCGT | 1.016 ± 0.0077
122 | AAAGGCCTTA | 1.01 ± 0.045
123 | AAAGGCGTAA | 0.997 ± 0.013
124 | AAAGGGAGGT | 1.03 ± 0.041
125 | AAAGGGCTGC | 1.02 ± 0.13

Row | Sequence | switch fluorescence ratio
126 | AAAGGGGACA | 1.02 ± 0.054
127 | AAAGGGGCGG | 1.02 ± 0.022
128 | AAAGGGGGAC | 1.04 ± 0.089
129 | AAAGGGGGC | 0.974 ± 0.067
130 | AAAGGGGGCG | 0.99 ± 0.017
131 | AAAGGGGGTA | 0.986 ± 0.015
132 | AAAGGGGTGA | 0.9698 ± 0.0057
133 | AAAGGGTTCG | 1 ± 0.034
134 | AAAGGGTTTC | 1 ± 0.038
135 | AAAGGTAAGG | 0.965 ± 0.016
136 | AAAGGTCTGA | 0.98 ± 0.0099
137 | AAAGGTTCTG | 0.992 ± 0.072
138 | AAAGTAAAGT | 1.01 ± 0.028
139 | AAAGTACGGT | 1.21 ± 0.024
140 | AAAGTAGGAG | 0.98 ± 0.048
141 | AAAGTAGTTA | 0.991 ± 0.015
142 | AAAGTATCAG | 1.002 ± 0.0081
143 | AAAGTCTAC | 1 ± 0.017
144 | AAAGTGATTG | 0.9723 ± 0.0028
145 | AAAGTGGGAG | 0.971 ± 0.012
146 | AAAGTGGGG | 0.973 ± 0.016
147 | AAAGTGGGGA | 1.03 ± 0.038
148 | AAAGTTAATG | 1.009 ± 0.0074
149 | AAAGTTACTG | 1.03 ± 0.077
150 | AAAGTTCCTA | 0.968 ± 0.033

Row | Sequence | switch fluorescence ratio
151 | AAAGTTGGCT | 1.02 ± 0.046
152 | AAAGTTTCCG | 1 ± 0.0018
153 | AAATAATTGC | 1.01 ± 0.038
154 | AAATACACGA | 1.06 ± 0.029
155 | AAATACGAGA | 1.06 ± 0.024
156 | AAATACGTTT | 1 ± 0.016
157 | AAATAGCTTT | 0.9909 ± 0.0026
158 | AAATAGTGGG | 0.986 ± 0.026
159 | AAATATAAGC | 1.03 ± 0.044
160 | AAATATATCT | 0.987 ± 0.012
161 | AAATATGTGG | 0.989 ± 0.02
162 | AAATATTTAT | 0.971 ± 0.018
163 | AAATCAATGT | 1.02 ± 0.035
164 | AAATCCCTAC | 1.06 ± 0.028
165 | AAATCGGGAA | 1.34 ± 0.44
166 | AAATCGGTGT | 1 ± 0.037
167 | AAATCGTGCA | 1 ± 0.03
168 | AAATCTGAAG | 0.9798 ± 0.0027
169 | AAATGAAGGT | 1.01 ± 0.013
170 | AAATGACGTT | 0.9688 ± 0.0078
171 | AAATGAGCGG | 0.9824 ± 0.0046
172 | AAATGAGTGG | 0.9783 ± 0.006
173 | AAATGCTATG | 1.01 ± 0.031
174 | AAATGCTCGG | 0.993 ± 0.03
175 | AAATGGAATG | 0.983 ± 0.046

Row | Sequence | switch fluorescence ratio
176 | AAATGGATCA | 1.024 ± 0.0029
177 | AAATGGCACG | 0.973 ± 0.024
178 | AAATGGCATT | 1 ± 0.033
179 | AAATGGGGGG | 0.974 ± 0.017
180 | AAATGGTTTT | 1 ± 0.024
181 | AAATGTCTTG | 0.955 ± 0.043
182 | AAATGTGACG | 1.03 ± 0.028
183 | AAATGTTGAG | 0.975 ± 0.045
184 | AAATGTTTCA | 0.996 ± 0.022
185 | AAATGTTTGG | 1.01 ± 0.017
186 | AAATGTTTTC | 0.979 ± 0.015
187 | AAATTACGGG | 1.045 ± 0.0046
188 | AAATTATAGG | 1.01 ± 0.032
189 | AAATTATTT | 1.02 ± 0.051
190 | AAATTCATAG | 1.019 ± 0.0033
191 | AAATTCATGG | 0.9809 ± 0.0021
192 | AAATTCATGT | 0.996 ± 0.028
193 | AAATTCGAAT | 1.02 ± 0.041
194 | AAATTCGGGC | 0.973 ± 0.014
195 | AAATTCTGGG | 0.996 ± 0.0075
196 | AAATTGAGGA | 1.017 ± 0.0096
197 | AAATTGATAT | 1.02 ± 0.025
198 | AAATTGCGGC | 0.975 ± 0.012
199 | AAATTGGACG | 1.08 ± 0.04
200 | AAATTGGGAA | 1.01 ± 0.035
